Experimental data taken from patent US20110033498.

Tests used:
poly-SUMO-2 chains (2-8) = poly-SUMO-2 chains (2-8) (UniProt P61956)
pro-SUMO-1 = pro-SUMO-1 (UniProt P63165)
pro-SUMO-1, sequence (P63165 whole entry): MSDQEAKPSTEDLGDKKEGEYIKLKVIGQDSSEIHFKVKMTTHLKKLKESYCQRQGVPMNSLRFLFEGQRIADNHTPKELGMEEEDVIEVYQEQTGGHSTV

poly-SUMO-2 chains (2-8), sequence (P61956 1-93): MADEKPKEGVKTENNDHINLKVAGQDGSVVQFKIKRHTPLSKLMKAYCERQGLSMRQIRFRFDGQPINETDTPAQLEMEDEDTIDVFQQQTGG

## His6-SENP2CD (catalytic domain of SENP2)
poly-SUMO-2 chains (2-8)
  in vitro hydrolysis of poly-SUMO-2 chains, Coomassie staining: the catalytic domain of SENP2 (SENP2CD), a SUMO-specific protease, could hydrolyze SUMO chains to monomers
  in vitro hydrolysis of poly-SUMO-2 chains, SDS-PAGE and Coomassie staining: SENP2 reduced the chains to monomers
poly-SUMO-3 chains (2-8)
  in vitro hydrolysis of poly-SUMO-3 chains, Coomassie staining: the catalytic domain of SENP2 (SENP2CD), a SUMO-specific protease, could hydrolyze SUMO chains to monomers
  in vitro hydrolysis of poly-SUMO-3 chains, anti-SUMO-3 Western blot: An identical result was obtained when poly-SUMO-3(2-8) chains were tested
pro-SUMO-1
  in vitro processing of pro-SUMO-1, Coomassie staining: could hydrolyze SUMO chains to monomers (FIG. 12D, lane 10) and process pro-SUMO-1
